# T1: GST-CHMP1B(4–199) (WT) (human, UniProt Q7LBR1 4-199)
# T1 sequence (looked up): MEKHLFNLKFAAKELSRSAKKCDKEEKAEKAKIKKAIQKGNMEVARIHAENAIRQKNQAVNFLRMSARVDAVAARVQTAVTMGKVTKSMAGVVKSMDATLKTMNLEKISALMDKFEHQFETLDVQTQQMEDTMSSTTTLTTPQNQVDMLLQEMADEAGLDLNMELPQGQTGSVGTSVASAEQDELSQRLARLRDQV
# B1: CHMP1B(4–199) for structure determination (from His-SUMO fusion) (natural protein, human, UniProt Q7LBR1 4-199, looked up)
# chain: T1 sequence (looked up)
# B2: IST1(1–189) (IST1NTD) (domain or fragment, human, UniProt P53990 1-189, looked up)
# chain: MLGSGFKAERLRVNLRLVINRLKLLEKKKTELAQKARKEIADYLAAGKDERARIRVEHIIREDYLVEAMEILELYCDLLLARFGLIQSMKELDSGLAESVSTLIWAAPRLQSEVAELKIVADQLCAKYSKEYGKLCRTNQIGTVNDRLMHKLSVEAPPKILVERYLIEIAKNYNVPYEPDSVVMAEAPP
# Assays:
# cryo-EM structure = target: the molecule itself; assay: cryo-EM structure
# GST-CHMP1B(4–199) (WT) = target: T1, GST-CHMP1B(4–199) (WT); assay: SPR
# [1] = target: the molecule itself; assay: negative stain EM of filament assembly
# IST1(1–189) (IST1NTD) = target: B2; assay: SPR
binder,measurement,setting,value
B1,binding result,cryo-EM structure,binds
B2,Kd,GST-CHMP1B(4–199) (WT),92 µM
same,binding result,[1],binds
"DELSQRLARLRDQV (peptide, UniProt Q7LBR1 186-199, looked up) [GST-CHMP1Bα6 (CHMP1B MIM1 element alone, residues 186–199)]",Kd,IST1(1–189) (IST1NTD),91 µM

# — article doi:10.1101/386532 (bioRxiv, 2018)
